Data as given in patent publication US20210163947.

Tested on: pdt-tagged sfGFP

mf-Lon
signal decay of pdt-tagged sfGFP (protein degradation) on mixing extracts: Increasing the concentration of mf-Lon and supplying additional ATP (a co-substrate for the reaction) results in some signal decay
